B1: Polycystin-2 (Homo sapiens), Q13563 (parent)
chain: MVNSSRVQPQQPGDAKRPPAPRAPDPGRLMAGCAAVGASLAAPGGLCEQRGLEIEMQRIRQAAARDPPAGAAASPSPPLSSCSRQAWSRDNPGFEAEEEEEEVEGEEGGMVVEMDVEWRPGSRRSAASSAVSSVGARSRGLGGYHGAGHPSGRRRRREDQGPPCPSPVGGGDPLHRHLPLEGQPPRVAWAERLVRGLRGLWGTRLMEESSTNREKYLKSVLRELVTYLLFLIVLCILTYGMMSSNVYYYTRMMSQLFLDTPVSKTEKTNFKTLSSMEDFWKFTEGSLLDGLYWKMQPSNQTEADNRSFIFYENLLLGVPRIRQLRVRNGSCSIPQDLRDEIKECYDVYSVSSEDRAPFGPRNGTAWIYTSEKDLNGSSHWGIIATYSGAGYYLDLSRTREETAAQVASLKKNVWLDRGTRATFIDFSVYNANINLFCVVRLLVEFPATGGVIPSWQFQPLKLIRYVTTFDFFLAACEIIFCFFIFYYVVEEILEIRIHKLHYFRSFWNCLDVVIVVLSVVAIGINIYRTSNVEVLLQFLEDQNTFPNFEHLAYWQIQFNNIAAVTVFFVWIKLFKFINFNRTMSQLSTTMSRCAKDLFGFAIMFFIIFLAYAQLAYLVFGTQVDDFSTFQECIFTQFRIILGDINFAEIEEANRVLGPIYFTTFVFFMFFILLNMFLAIINDTYSEVKSDLAQQKAEMELSDLIRKGYHKALVKLKLKKNTVDDISESLRQGGGKLNFDELRQDLKGKGHTDAEIEAIFTKYDQDGDQELTEHEHQQMRDDLEKEREDLDLDHSSLPRPMSSRSFPRSLDDSEEDDDEDSGHSSRRRGSISSGVSYEEFQVLVRRVDRMEHSIGSIVSKIDAVIVKLEIMERAKLKRREVLGRLLDGVAEDERLGRDSEIHREQMERLVREELERWESDDAASQISHGLGTPVGLNGQPRPRSSRPSSSQSTEGMEGAGGNGSSNVHV
partner: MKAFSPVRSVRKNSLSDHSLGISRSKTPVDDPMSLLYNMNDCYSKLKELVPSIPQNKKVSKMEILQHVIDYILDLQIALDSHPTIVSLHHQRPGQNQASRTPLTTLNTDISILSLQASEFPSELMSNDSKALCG

Variants of: B1
Details: with id2_human ID2, Q02363

Row | effect of a mutation on the interaction | Variant
1 | disrupting interaction | S812A
